Values quoted from earlier work as cited in PMC8199105.

Target: Albumin (UniProt P02768)
Assay: surface plasmon resonance

## Cubilin (from UniProt O70244)
  Kd: 630 nM
